From the nanobody polyreactivity screen of Harvey et al. (2022)

Assay: yeast display, Sf9 membrane polyspecificity reagent, FACS + sequencing; frameworks hold sequencing errors
Method in brief: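 Polyreactivity labels are assigned by the sorting gate from which each nanobody was recovered. The gates were low and high (top ~1%), set on anti-HA fluorescence for expression and streptavidin fluorescence for reagent binding. Before sorting, galactose-induced (36–48 hours) yeast display cells were stained for 1 hour at 4 °C with 10% biotinylated, detergent-solubilized Sf9 membrane reagent.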

Row | Sequence | polyreactivity (PSR sort gate)
1 | QVQLVESGGGLVQAGGSLRLSCAASGSTLNYNAMGWYRQAPGKERELVAAISWSGGSTYYADSVKGRFTISRDNAKNTVYLQMNSLKPEDTAVYYCAADQSTVLDVGSWGQGTQVTGSS | low polyreactivity
2 | QVPLVESVGGLVQAGGSLRISCAASGGIFRYYAMGRYRQAPGNERELVAAITSSGTSTYYADSVKGRFTISRDNAKNTVYLQMNSLKPEDTAVYYCAAETYYSIYDYWGQGTQVTVSS | high polyreactivity
3 | QFQLVESGGGLVQAGGSLRLSCAASGSTFIRYAMGWYRQAPGKERELVAAISRSGGNTYYADSVKGRFTISRDKAKNTVYLQMNSLKPEDTAVYYCNKDRQQALNYWGQGTQVNVSS | high polyreactivity
4 | QVQHVESGGGLVQAGGSLRLSCAASGDIFRPNAMGWYRQAPGKERELVAAITRSGGTTYYADSVKGRFTISRDYAKNTVYLQMNSLNPEDTAVYYCAARGLQYYRYDYWGQGTQVTVSS | low polyreactivity
5 | QVQLVESGGGLVQAGGSLRLSCAASGFIFTKYTMGWYRQAPGKERELVADITGRGTSTYADSVKGRFTISRDNAKNTVYLQMNSLKPEDTAVYYCAAVGWFADFLFSDINGYYWGQGTQVTVSS | low polyreactivity
6 | QVQLVESGGGLVQAGGSLRLSCAASGSIFTYYVRGWYRQAPVKERELVAGISRRGSTYYADSVKGRFTISRDNAKNTVYLQMNSLKQEDTAVYYCAAEPWVGTLYPRVGYWGQGTQVTVSS | low polyreactivity
7 | QVQLVESGGGLVQAGGSLRLSCAASGSTFGYYAMGWYRQAPGKERELVAAISWRGGSTYYADSVKGRFTISRDNAKNTVYLQMNSLKPEDTAVYYCAAAIFITGYGSYGYWGQGTQVTVSS | low polyreactivity
8 | QVQFVESGGGLVQAGGSLRLSCAASGSIFALYAMGWYRQAPGKERELVAAISYRGGRTYYADSVKGRFTISRDNAKNTVYLQMNSLKPEDTAVYYCATDFPGKFDYWGQGTQVTVSS | low polyreactivity
9 | QVQLVESGGGLVQAGGSLRLSCAASGGIDYTNAMGWYRQAPGKERELVAAIRKNGDSTNYADSVKGRFTISRDNAKNTVYLQMNSLKPEDTAVYYCNAELWPWAYDYWGQGTQVTVSS | low polyreactivity
10 | QVQLVESGGGLVQAGGSLRLSCAPSGRTFKVNDMGWYRQAPGKERELVAAINYRGGRTYYADSVKGRFTISRDNAKNNFYLQMNSLKPEDTAFYYCNAQSGVVADDYWGQGTQVTVSS | high polyreactivity
11 | QVQLVESGGGLVQAGGSLRLSCAASGRTSRYYAMGWYRQAPGKERELVAAISSSGGNTYYADSVKGRFTISRDNAKNTVYLQMNSLKPEDTAVYYCNAYYPIRSSPYGYYYWGQGTQVTVSS | high polyreactivity
12 | HVQLVESGGGLVQAGGSLRLSCAASGSTFNINAMGWYRQAPGKETEFVAAINYRGGSTYYADSVKGRFTISRDNSKNTVYLQMNSLKPEDTAVYYCAAASWKVRKKFDYWGQGTQVTVSS | low polyreactivity
13 | QIQLEESGGGLVQAGGSLRLSCAASGSIFSVYAMGWYRQAPGKERELVATISTGGSTYYADSVKGRFTISRDNAKNTVYLQMNSLKPEDTAVYYCNAQFTPRYWGGYDSWGQGTQVTVSS | low polyreactivity
14 | QVQLVESGGGLVQAGGSLRLSCAASGFTFRLYAMGWYRQAPGKERELVATITRRGGITTYADSVKGRFTISRDNAKNTVYLQMNSLKPEDTAVYYCNAGKYVYATSQYDYWGQGTQVTVSS | high polyreactivity
15 | QVQLVESAGGLVQAGGSLRLSCAASGRTFTCNAMGWYRQAPGKERELVAAISYSGGSTYYADSVKGRFTISRDNAKNTVYLQMNSLKPEDTAVYNCAVLGTPYGLNDYWGQGTQVTVSS | high polyreactivity
16 | QVQLVESGGGLVQAGGSLRLSCAASGSIFSPNDMGWYRQAPGKERELVAAITSAGSTYYADSVKGRFTISRDNAKNTVYLQMNSLKPEDTAVYYCSASYISVTDYAYFPLWYGYWGQGTQVTVSS | low polyreactivity
17 | QEQLVESGGGLVQAGGSLRLSCAPSGSIMYVYAMGWYRPAPGKERELVAVITSGGSTTYADSVKGRFTMSRDNAKNTVYLQMNSLKPEDTAVYYCAAVPYSVYGGDYWGQGTQVTVSS | low polyreactivity
18 | QVQLVESGGGLVQAGGSLRLSCAASGFTFRRYAMGWYRQAPGKERELVAGITGRGGSTYYADSVKGRFTISRDNAKNTVYLQMNSLKPEDTAVYYCNKPRAARGYLTGQLDYWGQGTQVTVSS | high polyreactivity
19 | QVQLVESGGGLVQAGGSLRLSCAASGFIFRRYVMGWYRQAPGKERELVAAISTSGGSTYYADSVKGRFTISRDNAKNSVYLQMNSLKPADTAVYYCNKAVGVTGFDYWGQGTEVTVSS | high polyreactivity
20 | QVQLVESGGGLVQAGSSLRISCAASGRTLIYYAMGWYRQAPGKEREMVASINRRGDSTYYADSVKGRFTISRYNAKNTVYLQMYSLKPEDTAVYYCAKVLYGGYPENRYFVGWGREYLGQGTQVTVSS | high polyreactivity
21 | QVQLVESGGGLVQAGGSLRLSCAASGRTFSYNAMGWYRQAPGKERELVAAITGRGGSTYYADSVKGRFTISRDNAKHTVYLQMNSLKPEDTAVYYCNAPPGTFQWQGHSDYWGQGTQVTVSS | low polyreactivity
22 | QVQLEESGGGLVQAGGSLRLTCAASGSIFDYNAMGWYRQAHGKERELVAAITSGGITYADSVKGRFTISRDNAKNTVYLQMNSLKPEDTAVYYCAALDKLSKYRRYRYGYWGQGTQVTVSS | high polyreactivity

Row | Sequence | polyreactivity (PSR sort gate)
23 | QVQLVESGGGLVQAGGSLRLRCAASGRTIGPYAMGWYRQEPRKERELVAAISWSGGSTYYADSVKGRFTISRDNAKNTVYLQMNSLKPVDTAVYFCAAVYYSHVYYWGQGTQVTVSS | high polyreactivity
24 | QVQLVESGGGLVQAGGSLRLSCAASGFTFLNNTMGWYRQAPGKERELVAAITSSGDRTYYADSVKGRFTISRDNAKNTVYLQMNSLKPEDTAVYYCAADWAYYVASYLYYTFDYWGQGTQVTVSS | low polyreactivity
25 | QVQLVESGGGLVQAGGSLRVSCASSGRIFVYDMGWYRQAPGKERELVAAITRGGSTKYADSVKGRFTISRDNAKNTVFLQMNSLKPADTAVYYCAADTRRYRFYYWGQGTQVSVSS | high polyreactivity
26 | QVQLVESGGGLVQAGGSLRLSCAASGSIFIVNDMGWYRQAPGKERELVAAISGRGGNTNYADSVKVRFTISRDNAKNTVYLQMNSLKPEDTSVYFCAARHTRDYDYWGQGTQVTVSS | high polyreactivity
27 | QVQLVESGGGLVQAGGSLRLSCAASGYIFGGYAMGWYRQAPGKERELVAGISIGVGSTYYADSVKGRFTISRDNAKNTVYLQMNSLKPEDTAVYYCNRDSVGYDYWGQGTQVTVSS | low polyreactivity
28 | QVQLVESGGGLVQAGGSLRLSCAASGLIFGVYAMGWYRQAPGKERELVAGISWRGSSTYYADSVKGRFTISRDNAKNTVYLQMNSLKPEDTAVYYCAAVRRPSRHAYGGTAVYYWGQGTQVTVSS | high polyreactivity
29 | QVQLVESGGGLVQAGGSLRLSCAASGRIFSYYALGWYRQAPGKERELVAAISSRGGSTYYADSVKGRFTISRDNAKNTVYLQMNSLKPEDTAVYYCNAYVYQVIGHDYWGQGTQVTVSS | high polyreactivity
30 | QVQLVESGGGLVQAGGSLRLSCAASGSILLYYTMGWYRQAPGKERELVASITSGGRTYYADSVKGRFTISRDNAKNTVYLQMNSLKPEDTAVYYCAADVWKLYDYWGQGTQVTVSS | low polyreactivity
31 | QVQLVESGGGLVQAGGSLRLSCAASGFIFLSNGMVWYRQAPGKERELVAAISSSGGSTYYADSVKGRFTISRDTAKNTVYLQMNSLKPEDTAVYYCAKDNGPWFAYDYWGQGSQVTVSS | low polyreactivity
32 | QVQLVESGGGLDQAGGSLRLSCAASGIIFWEYAMGWYRQAPGKERELVAAINARGTRTYYADSVKGRFTISRDNAKNTVYLQMNSLKPEDTAVYYCAADRYGWTRYDSWGQGTQVTVSS | high polyreactivity
33 | QVQLVESGGGLVQAGGSLRLSCAASGRIFPTNAMGWYRQAPGKERELVASITRSGSTYYADSVTGRFTISRDNAKNTVYLQMNSLKPEDTAVYYCAAYAYIFLDWGGYPYYLYEYDYWGQGTQVTVSS | low polyreactivity
34 | QVKLVESGRGLVQAGGSLRVSCAASGRIFQRYVMGWYRQAPGKERELVAAITWSGGSTYADSVKGRFTISRDNAKNTVYLQMNSLKTEDTAVYYCAARVPYNYWGMYYLYDYWGQGTQVTVSS | high polyreactivity
35 | QVQLVESGGGLVQAGVSLRLSCAASGSIFGHYAMGWYRQAPGKERELVAAISWSGTSTYYADSVKGRFTISRDNAKNTVYLQMNSLKPEDTAVYYCNVVYRVVSPSGGGYWGQGTQVTVSS | high polyreactivity
36 | QVQLVESGGGLVQAGGSLRLSCAASGRIIVPYGMGWYRQAPGKERELVAAITTGGSTNYADSVKGRFTISRDNAKNTVYLQMNSLKPEDTAVYYCAVDWYPQLIYSFNSELEYWGQGTQVTVSS | low polyreactivity
37 | QVQRVESGGGLVQAGGSLRLSCAASGITFRTNTMGWYRQAPGKERELVAAITWDAGSTYYADSVKGRFTISRDNAKHTVYVQMKSLKPEDTAVYYCAARLSYLYGLYPYYYWGQGTQLTVSS | high polyreactivity
38 | QVQLQESGGGLAQAGGSLRLICAASGTLFPADSMGWYRQAPGKERELVAGITSGANTYYADSVNGRFTISHDNAKQTVYLQMDSLIPEDIAVYYCAAPGSSTYDLESWGQGTQVNVSS | high polyreactivity
39 | QVQLVESGGGLVQAGGSLRLSCAASGLIFGVNAMGWYRQAPGKEREFVARITRSGSSTYYADSVKGRFTISRDNAKNTVYLQMNSLKPEDTAVYYCAVDLFYKYDWGQGTQVTVSS | high polyreactivity
40 | QVQLVESGGGLVQAGGSLRLSCAASGRTFRVYAMGWYRQAPGKERELVATITSSGGSTYYADSVKGRLTISRDNAMNTVDLQMNSLKPEDTAGYYCNVSVYYKYVSSYYYWGQGTQVTVSS | low polyreactivity
41 | QVQLHESGGGLVQAGGSLRLSCAASGTISYAGPMGWYRQAPGKEREFVAGIGVGSNTNYADRVKGRYTIIRDNAKNTEYLQRNSLKPEDTALYYCAVGGYAPLGRPYWGQGTQVTVSS | low polyreactivity
42 | QVQLVESGGGLVQAGGSLRLSCAASGFTFKWYTMGWYRQAPGKERELVAGISRRGGSTYYADSVKGRFTISRDNAKNTVYLQMNSLKPEDTAVYYCAARYTWRRAGYYYWGQGTQVTVSS | high polyreactivity
43 | QVQLVETGGGLVQAGGSLRLSCAASGRTFDGNVMGWYRQEPGKERELGAAISDRGTRTYYADSVKGRFTISRDNAKNTVYLQMNSLKPEDTAVYYCATRVYFSPYRYDYWGQGTQGTVSS | high polyreactivity
